Experimental data: doi:10.1101/2024.09.16.613291
Like-named read-outs stand apart in the source and are kept apart here.

Legend:
[1] = target: PP2A:B55 holoenzyme (PP2Aa:B55:PP2Ac), purified, active, methylated on PP2Ac L309 (UniProt P30153)
[2] = target: PP2A:B55 holoenzyme (PP2Aa:B55:PP2Ac), purified, active, methylated on PP2Ac L309 (UniProt P30153); remark: listed apart in the source

Chain of UniProt P30153 (P30153 9-589, chain 1 of 3): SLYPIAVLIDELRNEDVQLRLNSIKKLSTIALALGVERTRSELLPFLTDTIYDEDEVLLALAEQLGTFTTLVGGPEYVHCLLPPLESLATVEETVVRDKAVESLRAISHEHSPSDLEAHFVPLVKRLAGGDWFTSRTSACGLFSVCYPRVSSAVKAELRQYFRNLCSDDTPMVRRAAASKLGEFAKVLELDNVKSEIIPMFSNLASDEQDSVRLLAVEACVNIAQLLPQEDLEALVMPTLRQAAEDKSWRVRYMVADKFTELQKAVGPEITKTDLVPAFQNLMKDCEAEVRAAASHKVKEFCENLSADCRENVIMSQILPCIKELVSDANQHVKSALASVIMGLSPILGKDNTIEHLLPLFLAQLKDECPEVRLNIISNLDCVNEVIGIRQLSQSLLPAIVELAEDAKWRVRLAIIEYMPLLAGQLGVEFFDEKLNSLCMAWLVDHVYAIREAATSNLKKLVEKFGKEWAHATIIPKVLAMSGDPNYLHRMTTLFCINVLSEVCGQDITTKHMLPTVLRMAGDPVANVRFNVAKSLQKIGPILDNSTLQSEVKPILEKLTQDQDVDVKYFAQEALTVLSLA
Chain of UniProt P30153 (P63151 whole entry, chain 2 of 3, further chain): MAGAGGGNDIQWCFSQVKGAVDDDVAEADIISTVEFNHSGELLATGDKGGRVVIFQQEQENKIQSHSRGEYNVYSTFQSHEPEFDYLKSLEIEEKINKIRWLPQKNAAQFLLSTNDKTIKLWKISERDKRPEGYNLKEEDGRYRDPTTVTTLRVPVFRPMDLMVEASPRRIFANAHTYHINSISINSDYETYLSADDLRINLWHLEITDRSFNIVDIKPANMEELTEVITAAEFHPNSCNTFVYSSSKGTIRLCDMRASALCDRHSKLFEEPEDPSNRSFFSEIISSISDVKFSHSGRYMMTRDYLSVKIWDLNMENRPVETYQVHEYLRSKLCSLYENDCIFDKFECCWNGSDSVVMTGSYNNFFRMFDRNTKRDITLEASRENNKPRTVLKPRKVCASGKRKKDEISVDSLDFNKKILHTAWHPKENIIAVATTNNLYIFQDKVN
Chain of UniProt P30153 (P67775 whole entry, chain 3 of 3, further chain): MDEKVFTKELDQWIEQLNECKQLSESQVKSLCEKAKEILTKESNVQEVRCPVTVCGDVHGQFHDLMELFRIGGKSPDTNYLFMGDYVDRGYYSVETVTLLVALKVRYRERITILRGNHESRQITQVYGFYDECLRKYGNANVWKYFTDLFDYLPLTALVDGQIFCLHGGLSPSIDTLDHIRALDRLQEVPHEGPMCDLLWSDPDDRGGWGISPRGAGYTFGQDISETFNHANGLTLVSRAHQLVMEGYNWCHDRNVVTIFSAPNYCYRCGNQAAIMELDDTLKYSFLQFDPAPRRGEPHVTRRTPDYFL

Binder | IC50 of inhibition of PP2A:B55 (1 nM) dephosphorylation of DiFMUP (50 uM) [1] [nM] | IC50 of inhibition of PP2A:B55 (1 nM) dephosphorylation of DiFMUP (50 uM) [2] [nM]
RSSNDYTSQMYSAKPYAHILSVPVSETAYPGQTQYQTLQQTQPYAVYEE (domain or fragment) [Eya3 PP2A:B55 interaction domain (aa 62-108) with C-terminal EE] | 1100 | –
p107 interdomain region (residues 612-687) (domain or fragment) MPMSPLMHPRVKEVRTDSGSLRRDMQPLSPISVHERYSSPTAGSAKRRLFGEDPPKEMLMDKIITEGTKLKIAPSS | – | 245
